Assay results reported in patent US7067474B1, “Agents for treating human illnesses based on β-catenin, and the production and use thereof” (Max-Delbruck-Centrum fur Molekulare Medizin, priority 1998, dated 2006).
Substitutions are numbered along the chain they refer to.

What was measured:
[1] = molecular target: T1, human β-catenin (armadillo repeat 3 up to the C-terminal end, Leu218-Leu781) fused to the activation domain … (human, UniProt P04386 768-881; P35222 218-781); assay: yeast 2-hybrid; wild type is the 100% reference of Table 2
T1 construct: Order of the fusion follows the vector; also called wild type β-catenin
T1 sequence (looked up): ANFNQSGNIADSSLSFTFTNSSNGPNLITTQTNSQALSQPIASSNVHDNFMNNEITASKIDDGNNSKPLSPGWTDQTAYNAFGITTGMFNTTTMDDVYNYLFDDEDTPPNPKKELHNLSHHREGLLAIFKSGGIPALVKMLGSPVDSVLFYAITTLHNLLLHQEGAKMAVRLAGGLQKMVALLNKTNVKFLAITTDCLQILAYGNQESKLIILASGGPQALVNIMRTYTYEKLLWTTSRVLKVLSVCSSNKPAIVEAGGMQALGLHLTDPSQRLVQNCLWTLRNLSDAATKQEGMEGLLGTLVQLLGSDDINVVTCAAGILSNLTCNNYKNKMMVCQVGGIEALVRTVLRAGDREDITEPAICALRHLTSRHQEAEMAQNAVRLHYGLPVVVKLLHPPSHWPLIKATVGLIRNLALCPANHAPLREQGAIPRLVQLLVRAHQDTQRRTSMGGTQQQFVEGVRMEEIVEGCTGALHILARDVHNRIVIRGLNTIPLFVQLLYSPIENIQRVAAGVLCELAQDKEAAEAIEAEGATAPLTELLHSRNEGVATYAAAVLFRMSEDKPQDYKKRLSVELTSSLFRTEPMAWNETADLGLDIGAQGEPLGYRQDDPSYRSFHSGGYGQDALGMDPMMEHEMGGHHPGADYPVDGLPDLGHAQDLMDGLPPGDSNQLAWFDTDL
Procedure: (§1) 4. Preparation and testing of mutants of β-catenin modulating the interaction with LEF-1, APC, conductin or E-cadherin The mutagenesis of β-catenin in the armadillo repeats 3–8 was carried out by means of the "mutagenesis kit" of the company Clontech according to the producer's record and the mutants were checked by sequencing (FIG. 5). In all mutants the original amino acid was substituted by alanine. For analyzing the interactions the cDNA of human β-catenin (armadillo repeat 3 up to the C-terminal end of the protein) coding for the amino acids Leu218–Leu7 µl or its mutants was cloned into the fusion vector for the activation domain of Gal-4 (pGAD424, Clontech). The cDNA for the binding domains of the interaction partners was cloned into the Lex-A fusion vector BTM 116. To this end, the cDNA of LEF-1 for the amino acids 1–99, conductin for the amino acids Ala342–ARG465; of human APC for the amino acids His1012–Glu1215 (APC 15 amino acid repeats) and for the amino acids Ser1259Asp 1400 (APC 20 amino acid repeats) and E-cadherin for the amino acids Gin773–Asp884 (cytoplasmatic domain) were amplified with the respective primers PCR. The interaction of the Lex-A hybrids with β-catenin and its mutants was quantified by means of the β-galactosidase reporter activity in the yeast 2-hybrid system (report: "Matchmaker". Clontech) (Tab. 2 and FIG. 6).

[2] = molecular target: T2, human β-catenin (Leu218-Leu781) mutant Trp 383 to alanine, Gal-4 activation domain fusion (human, UniProt P35222 218-781); assay: yeast 2-hybrid; - means 60-100% of the wild type interaction
T2 sequence: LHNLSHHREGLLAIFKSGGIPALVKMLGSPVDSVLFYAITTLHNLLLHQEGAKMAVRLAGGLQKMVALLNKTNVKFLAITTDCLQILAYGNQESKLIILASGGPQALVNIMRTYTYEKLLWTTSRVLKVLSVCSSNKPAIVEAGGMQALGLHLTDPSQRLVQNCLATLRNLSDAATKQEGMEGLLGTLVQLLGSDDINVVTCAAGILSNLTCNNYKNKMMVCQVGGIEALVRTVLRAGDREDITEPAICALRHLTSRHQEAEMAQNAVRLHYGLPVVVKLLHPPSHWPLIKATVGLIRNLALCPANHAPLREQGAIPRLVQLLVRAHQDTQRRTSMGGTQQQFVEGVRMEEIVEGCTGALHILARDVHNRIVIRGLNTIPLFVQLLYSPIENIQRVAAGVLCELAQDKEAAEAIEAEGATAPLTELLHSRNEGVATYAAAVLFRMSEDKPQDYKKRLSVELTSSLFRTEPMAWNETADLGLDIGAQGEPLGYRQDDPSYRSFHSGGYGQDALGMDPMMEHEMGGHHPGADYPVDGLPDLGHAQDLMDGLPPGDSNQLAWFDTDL
Procedure: as §1

[3] = molecular target: T3, human β-catenin (Leu218-Leu781) mutant Arg 274 to alanine, Gal-4 activation domain fusion (human, UniProt P35222 218-781); assay: as above
T3 sequence: T2 sequence with R57A, A166W
Procedure: as §1

- binding result [1]: binds
- binding result [2]: binds
- binding result [3]: binds
B1: LEF-1 amino acids 1-99 fused to Lex-A (vector BTM 116) (other, UniProt P0A7C2 1-202, looked up)
chain: MKALTARQQEVFDLIRDHISQTGMPPTRAEIAQRLGFRSPNAAEEHLKALARKGVIEIVSGASRGIRLLQEEEEGLPLVGRVAAGEPLLAQQHIEGHYQVDPSLFKPNADFLLRVSGMSMKDIGIMDGDLLAVHKTQDVRNGQVVVARIDDEVTVKRLKKQGNKVELLPENSEFKPIVVDLRQQSFTIEGLAVGVIRNGDWLMPQLSGGGGGGDPELCATDEMIPFKDEGDPQKEKIFAEISHPEEEGDLADIKSSLVNESEIIPASNGHEVVRQAPSSQEPYHDKAREHPDEGKHPDGGL
notes: Order of the fusion follows the vector; also called LEF-1/TCF-4
